Experimental data reported in patent US20190248902A1 (published 2019).
Changes are numbered by the printed parent chain.

T1: soluble human ASGR-1 carbohydrate binding domain (CBD; amino acid residues 154-281; N-terminal 6xHis tag) (human, UniProt P07306 154-281)
T1 construct: also called ASGR-1 CBD
T1 sequence: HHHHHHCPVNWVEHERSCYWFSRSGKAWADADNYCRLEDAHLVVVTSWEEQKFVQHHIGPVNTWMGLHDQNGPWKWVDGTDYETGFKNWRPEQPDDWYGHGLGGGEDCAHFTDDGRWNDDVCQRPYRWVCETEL

T2: human ASGR-1 (wild type) (human, UniProt P07306 1-291)
T2 construct: also called wt ASGR1; huASGR-1
T2 sequence: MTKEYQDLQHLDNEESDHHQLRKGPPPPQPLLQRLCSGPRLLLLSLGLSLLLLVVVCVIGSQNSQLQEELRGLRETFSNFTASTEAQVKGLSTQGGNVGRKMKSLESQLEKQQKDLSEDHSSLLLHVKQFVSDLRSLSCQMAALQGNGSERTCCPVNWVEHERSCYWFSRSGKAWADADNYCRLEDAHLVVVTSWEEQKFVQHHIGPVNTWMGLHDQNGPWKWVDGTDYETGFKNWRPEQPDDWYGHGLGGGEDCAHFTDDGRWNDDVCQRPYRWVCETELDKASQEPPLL

B1: 56E5 (antibody, V domains shown)
VH: QVQLVQSGAEVKKPGASVKVSCQASGYTFTGYHMHWVRQAPGQGLEWMGWINPNNNATNYAQKFQGRVTMTRDTSISTAYMELRRLRSDDTAVYHCARDGTSSFDYWGQGTLVTVSS
VL: DIQMTQSPSSVSASVGDRVTITCRASQGIRKWLAWYQQKPGKAPKLLIYAASSLQSGVPSRFSGSGSGTDFTLTISSLQPEDFATYYCQQANSFPFTFGPGTKVDIK
notes: mAb
B2: 72G9 (antibody, V domains shown)
VH: EVQLVESGGGLVKPGGSLRLSCAASGFTFSSYSMNWVRQAPGKGLEWVSSISGSSSYIYYADSVKGRFTISRDNAKNSLYLQMNSLRAEDTAVYFCARGGSRGFDPWGQGTLVTVSS
VL: B1 VL with V11L, G28S, R30T, K31S, W32Y, A34N, A50T, A91S, N92H
notes: mAb
B3: 190F8 (antibody, V domains shown)
VH: QVQLVESGGGVVQPGRSLRLSCAASGFTFSTYGMHWVRQAPGKGLEWVAVIWYDGSNKNYADSVKGRFTISRDNSKNTLYLQMNSLRAEDTAVYYCARDQGVGYDGLDVWGQGTTVTVSS
VL: DIQMTQSPSSLSASVGDRVTITCRTSQGIGNYLAWFQQKPGKAPKSLLYKASSLQSGVPSKFSGSGSGTDFTLTISSLQPEDFATYYCQQYMTYPLTFGGGTKVEIK
notes: mAb
B4: 194C1 (antibody, V domains shown)
VH: B3 VH with T31S, K58E, N59H, D99N, Q100R, D105Y
VL: B3 VL with T25A, G30S, L48I, K50A, Q89L, Q90H, M92L
notes: mAb
B5: 198G3 (antibody, V domains shown)
VH: B3 VH with R19K, S56T, Y80C
VL: B3 VL with T5A, N31K, S56G
notes: mAb
B6: 191G10 (antibody, V domains shown)
VH: B3 VH with T31S
VL: B3 VL with N31K, A51V
notes: mAb
B7: 191G1 (antibody, V domains shown)
VH: B3 VH with T31S, K58E, N59H, Q100R, D105Y
VL: B3 VL with T25A, G30S, L48I, K50A, Q90H, M92L
notes: mAb
B8: 184E7 (antibody, V domains shown)
VH: QVQLVQSGAEVKTPGASVKVSCRASGYTFTSYNMHWVRQVPGQGLEWMGWINPNNGGSNYTQKFQGRVTMTRDTSISTAYMELSRLRSDDTAVYYCARKFGDWGQGTLVTVSS
VL: DIQMTQSPSSRSASIGERVTITCRASQGISNYLAWIQQKPGTAPKSLIYAASSLQSGVSSRFSGSGFGTDFTITISSVQREDFATYYCQQYNGYPFTFGHGTKVDIK
notes: mAb
B9: 6G7 (antibody, V domains shown)
VH: QVQLVESGGGVVQPGRSLRLSCAASGFTFSSYGMHWVRQTPGKGLEWVAIISYVGKNKYYADSVKGRFTISRDNSKNTLYLQMNSLRAEDTAVYYCARRGNSYGGYGMDVWGQGTTVTVSS
VL: DIQMTQSPSSRSASVGDRVTITCQASQDISNYLNWCQQKPGKALKLLIYDASTLETGVPSRFSGSGSGTDFTFTISSVQPEDIATYYCQQYDNVPITFGQGTRLEIK
notes: mAb
B10: 4A2 (antibody, V domains shown)
VH: QVQLVQSGTEVKKPGASVKVSCKASGYTFTNYDINWVRQATGQGLEWMGWMHPNSGNTGYAQKFQGRVTLTRNTSISTAYMELSSLRSEDTAVYYCASSSGWYYFDYWGQGTLVTVSS
VL: DIVMTQSPDSLAVSLGERATINCKSSQSILHSSNNNNYLAWFQQKPGQPPKLLLYWASTRESGVPDRFSGSGSGTDFTLTISSLQPEDVAVYYCQQYYNTPVTFGPGTKVGIK
notes: mAb
B11: 25A4 (antibody, V domains shown)
VH: B10 VH with Q3L, T9A, K13R, H52Y, L70M
VL: DIVMTQFPDSLAVSLGERATIKCKSSQSVLYSSHNNNYLAWYQQKPGQPPKLLLYWASTRESGVPDRFSGSGSGTEFTLTISSLEAEDVAVYYCQQYYSTPPTFGQGTKVEIK
notes: mAb
B12: 26C4 (antibody, V domains shown)
VH: B10 VH with T9A, T41S, H52N, K63R, L70M, S77N
VL: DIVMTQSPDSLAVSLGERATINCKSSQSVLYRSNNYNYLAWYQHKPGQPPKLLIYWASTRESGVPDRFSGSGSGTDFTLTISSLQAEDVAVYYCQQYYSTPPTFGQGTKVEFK
notes: mAb
B13: 29H8 (antibody, V domains shown)
VH: B10 VH with T9A, K12Q, H52N, K63R, L70M, T78A
VL: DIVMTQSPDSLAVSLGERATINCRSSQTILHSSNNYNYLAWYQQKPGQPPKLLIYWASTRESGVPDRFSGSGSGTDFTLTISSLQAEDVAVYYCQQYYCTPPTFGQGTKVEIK
notes: mAb
B14: 22G5 (antibody, V domains shown)
VH: EVQLLESGGGLVQPGGSLRLSCAASGFTFSSYAMNWVRQAPGMGLEWVSVISRSGGYTYYADSVKGRFTISRDNSKNTLYLQMNSLRAEDTAVYYCASRLAVAGSEAFDIWGQGTLVTVSS
VL: DIQMTQSPSSLSASVGDRVTITCRASQNISSYLNWYQQKQGKAPKLLIYAASSLQNGVPSRFSGRGSGTDFTLTISSLQPEDFATYYCQQSYRTPLFTFGPGTKVDFK
notes: mAb
B15: 194A4 (antibody, V domains shown)
VH: QVQLVQSGTEVKKPGASLKVSCKASGYTFTVYYLNWVRQAPGQGLEWMGWINPNSGGTNYAQKFQGRVTMTRDTSISTAYMELSRLRSDDTAVYYCARGYDILTGWGQGTLVTVSS
VL: EIVLTQSPGTLSLSPGERATLSCRASRGVSNIYLAWYQQKPGQAPRLLIYGASNRATGIPDRFSGSGSGTDFTLTISRLEPEDFAVYYCQHNDYSMFTFGPGTKVDIK
notes: mAb
B16: 5E5 (antibody, V domains shown)
VH: QVQLVESGGGVVQPGRSLRLSCAASGFTFSNYVMHWVRQAPGKGLEWVAVIWYDGSNKYYADSVKGRFTISRDNSKNTLYLQMNSLRAEDTAVYYCTREVYSSGWYDYGMDVWGQGTTVTVSS
VL: DIQMTQSPSSLSASVGDRVTITCRASQGIRNDLGWYQQKPGKAPKRLIYAASSLQSGVPSRFSGSGSGTEFTLTISSLQPEDFATYYCLQHYSYPRTFGQGTKVEVK
notes: mAb
B17: 7G4 (antibody, V domains shown)
VH: B16 VH with S30N, N84T, T97A, V100K, G104N
VL: B16 VL with K39R, F83S, Q90H, H91Q, V106I
notes: mAb
B18: 7E11 (antibody, V domains shown)
VH: QVQLVESGGGVVQPGRSLRLSCAASGFTFSSFGMHWVRQAPGKGLEWVAIIWHDGSNKYYADSVKGRFTISRDNSNNTLYLQMSSLRAEDTAVYYCARDLSMGGMDVWGQGTTVTVSS
VL: DIQMTQSPSSLSASVGDRVTIACRASQNIISYLNWYQQKPGKAPKFLIYTASSLQSGVPSRFSGSGSGTDFTLTISSLQPEDFAIYYCQQTYSTPLTFGGGTKVEIK
notes: mAb
B19: 48B12 (antibody, V domains shown)
VH: EVQLLESGGGLVQPGGSLRLSCAASGFTFSSYAMNWVRQAPGKGLEWVSAISGRGGNTFYADSVKGRFTISRDNSKNTLYLQMNSLRAEDTAVYYCAKRETYNWNYEGFDYWGQGTLVTVSS
VL: SYELTQPPSVSVSPGQTARITCSGDALPKKYAYWYQQKSGQAPVLVIYEDSKRPSGIPERFSGSSSGTMATLTISGAQVEDEADYYCNSTDSSGNHVVFGGGTKLTVL
notes: mAb

Molecular target: T1, soluble human ASGR-1 carbohydrate …
Assay: Octet BLI, mAb on AR2G tips, 1:1 fit
From the text: To quantitate the binding affinity of specific antibodies for ASGR-1 (either purified from hybridoma supernatants or made recombinantly), association and dissociation rates can be measured using a ForteBio Octet instrument. […] Experimental kinetic results were globally fit to a 1:1 binding model in order to determine the association and dissociation rate constants as well as the equilibrium dissociation constant. Association and dissociation times were chosen to ensure that curvature was present during association curves and measured dissociation levels dropped at least 5% from starting levels. All Octet buffers contained 10 mM Tris (pH7.5), 150 mM NaCl, 1 mM CaCl₂), 0.10 mg/ml BSA and 0.13% Triton X-100. Octet assays were run at 27° C. Because this assay only measures binding to the ASGR-1 CBD, antibodies that recognize epitopes partially or entirely outside the CBD and/or recognize ASGR-1 in the context of a native ASGR complex, for example, as could occur on cell membranes, may not score as positive in this assay.

Kd [nM]	Binder
0.5	B1
0.5	B2
0.6	B3
1.3	B4
0.04	B5
0.5	B6
2.4	B7
0.3	B8
2	B9
0.06	B10
0.03	B11
0.4	B12
1	B13
1.4	B14
0.7	B15
7.6	B16
0.9	B17
1.6	B18
0.3	B19

Molecular target: T2, human ASGR-1 (wild type)
Assay: flow cytometry, CHO-S:huASGR-1 cells, 11-point titration
Experimental: CHO—S stable high-expressing cell line were developed for both human ASGR-1 as well as mouse ASGR-1. A typical 384 well plate multiplex flow cytometery-based cell binding method is described as followed: Parental CHO—S cells and CHO—S:huASGR-1 cells were respectively labeled using a CellTrace CFSE Cell Proliferation Kit (ThermoFisher Catalog #C34554) and CellTrace Violet Cell Proliferation Kit (ThermoFisher Catalog#C34557) CHO—S:muASGR-1 were not labeled. 20 ul of cells at 4C were added to duplicate wells of the 384 well plate. The cells were equally mixed from all three cell lines (30K cells/well). Then 20 ul of the ASGR-1 antibodies (either purified from hybridoma supernatants or made recombinantly) were added in an 11-point dose response using a 1:2 fold serial dilution starting at 100 nM. The cells and antibodies were incubated for 30 min at 4C and then spun down and washed twice with FACS buffer containing 1 mM CaCl2. 30 ul of anti-hulgG-APC secondary antibodies were then added at a 1:1000 dilution) for 30 min at 4C and then washed once with the same buffer. 60 ul of PI (1:1000) was added and then the cells were read by a core flow cytometry facility. The cells were gated first for live cells, then for single cells and finally for the cell dyes to separate the mixed cells into the three different cell populations. Histograms of signal vs count representing the binding profile of each antibody at each antibody concentration were automatically analyzed for the median of the binding signal and then a binding graph was made with log 10 antibody concentration in nM on the X axis with […] from the duplicate wells on the Y-axis. The binding curves were fit with a standard four parameter sigmoidal binding curve and EC50's reported for all graphs with full curves.

EC50 [nM]	Binder
1.1	B1
0.41	B2
9	B3
0.11	B4
0.21	B5
0.31	B6
0.16	B7
1	B8
0.6	B9
0.82	B10
1.6	B11
11	B12
1.9	B13
7.2	B14
25	B15
3.8	B16
0.69	B17
1.4	B18
38	B19
